In US8796227B2, “Peptides for inhibiting chemokine binding to chemokine receptors” (Biokine Therapeutics Ltd., priority 2002, dated 2014):
“Also recorded” adds a separate entry of the source.

How the values were obtained:
Human MCP-1 = molecular target: T1, Human MCP-1 (Homo sapiens, UniProt P13500); test: ELISA analysis of the synthetic chemokine-binding peptide; conditions: chemokine-coated wells, specific binding = at least two fold of binding to control proteins (BSA, Actin, Fibronectin)
T1 construct: purchased PeproTech, Inc. 300-04
T1 sequence (P13500 24-99): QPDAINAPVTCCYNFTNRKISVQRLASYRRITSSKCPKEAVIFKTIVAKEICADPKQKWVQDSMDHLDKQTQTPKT
Procedure: (§1) Recombinant chemokines were ordered from PeproTech, Inc. (Rocky Hill, N.J., USA). Human SDF-1α (Cat. No. 300-28A), human MIG (Cat. No. 300-26) and human IL-8, (72 amino acids) (Cat. No. 200-08M), belong to the alpha-chemokines (C-X-C) family. Human MCP-1 (MCAF) (Cat. No. 300-04) and human Eotaxin (Cat No. 300-21) belong to the beta-chemokines (C-C family). All chemokines were prepared according to the company recommendations.
(§2) Peptides were synthesized in the Weizmann Institute of Science, Rehovot, Israel, in order to perform tests for characterization of their influence on the biological activity of the chemokines. The format of the various synthesized peptides was as follows: The cyclic peptides, ACX7CGGGSK-biotin-G and the linear peptides, X12GGGSK-biotin-G. The peptides were biotinylated on their C-termini; the biotin will serve as a detector during the following experiments. Each synthetic peptide was dissolved to concentration of 1 mg/ml (˜0.6 mM) in 4% DMSO (Dimethyl Sulphoxide, Sigma, Cat. # D-2650).
(§3) NUNC-Immuno™ MaxiSorp™ plates (Cat. No. 4-42404) were coated with the appropriate chemokine (0.1 ml/well, 0.1-1.0 μg/ml in 0.1 M NaHCO3, pH 8.6), overnight at 4° C. The plates were then blocked with 0.2 ml/well of blocking buffer (5 mg/ml BSA in 0.1 NaHCO3). Control wells were treated with blocking buffer alone, with no addition of target protein (chemokine). The plates were washed 6 times with PBST (0.1% Tween 20 in PBS), followed by incubation for 45 minutes at room temperature with 10-fold serial dilutions of individual synthetic peptides (10pg-10 μg) with 1% BSA (PBST-BSA)/well. After the plates were washed 6 times with PBST, the bound peptides were probed by HRP-SA Conjugate, diluted 1:10,000 to 1:20,000 in PBST-BSA, 0.1 ml/well for 45 minutes at room temperature. The target-bound synthetic peptides probed with HRP-SA were quantified by DAKO TMB one-step substrate system, followed by the addition of stop solution, HCl—H2SO4 mixture (0.1 ml/well) (1N HCl, 3N H2SO4). The results were analyzed by ELISA reader at OD450.
(§4) The present invention identifies chemokine-binding peptides with biological activity. The binding specificities of the various peptides to the chemokines were determined by screening against BSA, Actin and Fibronectin-coated wells as negative controls in parallel experiments. The binding level of the peptides to the various chemokines, which reached at least two fold of the binding level to the control proteins, was considered a specific binding.
(§5) The specific binding of the peptides was detected by screening methodology, using ELISA, as described in “Materials and Methods”, employing microplates coated with the various chemokines to be checked. The binding specificities of the various peptides to the various chemokines were determined by screening against BSA, Actin and Fibronectin-coated wells as negative controls in parallel experiments.
(§6) Again, the specificity of the binding, either to one chemokine or more, was established by comparing binding level with the control binding level to non-related proteins, (shown in the Figure as a broken line).

Eotaxin [1] = molecular target: T2, Eotaxin (Homo sapiens, UniProt P51671); test: as above; conditions: chemokine-coated wells, specific binding = at least two fold of binding to control proteins (BSA, Actin, Fibronectin)
T2 construct: purchased PeproTech, Inc. 300-21
Procedure: as §1, §2, §3, §4, §5, §6

human IL-8 = molecular target: T3, human IL-8 (Homo sapiens, UniProt P10145); test: as above; conditions: chemokine-coated wells, specific binding = at least two fold of binding to control proteins (BSA, Actin, Fibronectin)
T3 construct: human IL-8, (72 amino acids) (Cat. No. 200-08M); purchased PeproTech, Inc. 200-08M
T3 sequence (P10145 28-99 limits assumed): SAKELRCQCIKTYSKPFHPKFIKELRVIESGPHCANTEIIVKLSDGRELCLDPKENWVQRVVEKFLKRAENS
Procedure: as §1, §2, §3, §4, §5, §6

SDF-1α = molecular target: T4, SDF-1α (Homo sapiens, UniProt P48061); test: as above; conditions: chemokine-coated wells, specific binding = at least two fold of binding to control proteins (BSA, Actin, Fibronectin)
T4 construct: purchased PeproTech, Inc. 300-28A
T4 sequence (P48061 22-89 limits assumed): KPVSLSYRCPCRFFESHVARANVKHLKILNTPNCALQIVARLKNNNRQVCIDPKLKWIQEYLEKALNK
Procedure: as §1, §2, §3, §4, §5, §6

IL-8 = molecular target: T5, IL-8 (Homo sapiens, UniProt P10145); test: Biovalidation: laminar flow assay, chemokine and VCAM-1 activated adhesion of T cells; format: cell-based; parameters: key to Level of Antagonistic Effect / Level of Effect: + 20%; ++ 50%; +++ 100%; − No effect; conditions: VCAM-1; for Level of Antagonistic Effect: Chemokine checked IL-8, T cells, peptide 10 μg/ml; for Abolishment of the activity of IL-8: T cell adhesion under flow
T5 construct: human IL-8, (72 amino acids) (Cat. No. 200-08M); purchased PeproTech, Inc. 200-08M
T5 sequence (P10145 28-99): T3 sequence (P10145 28-99 limits assumed)

Eotaxin [2] = molecular target: T2, Eotaxin; test: as above; format: cell-based; conditions: VCAM-1
MIG [3] = molecular target: T6, MIG (Homo sapiens, UniProt Q07325); test: ELISA analysis of the synthetic chemokine-binding peptide; conditions: chemokine-coated wells, specific binding = at least two fold of binding to control proteins (BSA, Actin, Fibronectin)
T6 construct: purchased PeproTech, Inc. 300-26
T6 sequence (Q07325 23-125): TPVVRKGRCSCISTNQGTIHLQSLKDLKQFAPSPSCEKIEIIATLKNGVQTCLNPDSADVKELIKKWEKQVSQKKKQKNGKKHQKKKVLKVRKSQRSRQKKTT
Procedure: as §1, §2, §3, §4, §5, §6

[4] = tested on: chemokines MCP-1, SDF-1α, MIG, Eotaxin and IL-8; test: ELISA binding to the panel of chemokines (chemokine not singled out); parameters: species or system human; conditions: five chemokines tested, control binding level = one fold
Procedure: as §1, §2, §3
The present invention identifies chemokine-binding peptides with biological activity. The binding specificities of the various peptides to the chemokines were determined by screening against BSA, Actin and Fibronectin-coated wells as negative controls in parallel experiments. […]
The specific binding of the peptides was detected by screening methodology, using ELISA, as described in “Materials and Methods”, employing microplates coated with the various chemokines to be checked. The binding specificities of the various peptides to the various chemokines were determined by screening against BSA, Actin and Fibronectin-coated wells as negative controls in parallel experiments. […]

MIG [5] = molecular target: T6, MIG; test: Biovalidation: laminar flow assay, chemokine and VCAM-1 activated adhesion of T cells; format: cell-based; conditions: for Level of Antagonistic Effect: Chemokine checked MIG, T cells, peptide 10 μg/ml; for Level of Antagonistic Effect / Reduction of the activity of MIG: VCAM-1; for Reduction of the activity of MIG: T cell adhesion under flow
Procedure: 50 ml blood was added to 10 ml Dextran (Dextran T-500 6% w/v) in PBS (phosphate buffer saline), and 7 ml citrate buffer (25 g citrate, 8 g citric acid in 500 ml PBS). The solution was incubated for 30 min at 25° C. 10 ml Ficoll 1077 (Sigma) was added to the bottom of the tube. The tube was then centrifuged at 2,000 rpm for 30 min, at 18° C., (with the brake mode of the centrifuge off). The interphase was collected and washed twice with 8 ml PBS-5% FCS (fetal calf serum), followed by centrifugation at 1,400 rpm, for 5 min, at 18° C. The cells were re-suspended in PBS-5% FCS at a concentration less than 10^8/ml. 2 ml of the cell solution were applied and incubated for 45 min at 25° C. on a Perspex Nylon wool column, which was pre-soaked with PBS-5% FCS. Each column was washed with 8 ml PBS-5% FCS and the cells (T-cells and erythrocytes) were eluted by 50 ml of 5 mM EDTA in PBS. A red pellet was obtained by centrifugation at 1,400 rpm, at 4° C., for 5 min, with the brake on. In order to perform lysis of the erythrocytes, the red pellet was re-suspended in 5 ml lysis-buffer (155 mM NH4Cl, 10 mM KHCO3, 0.1 mM EDTA, X0.1PBS) for 4 min, followed by immediate addition of 50 ml of PBS-EDTA.
Following centrifugation at 1,400 rpm, at 4° C., for 5 min with brake on, the pellet was washed again with 50 ml PBS-EDTA and re-centrifuged under the same conditions. A white pellet was obtained and re-suspended in RPMI/10% FCS/L-glutamine/sodium pyruvate/antibiotics at a concentration of 3^X10^6 cells/ml. The cells were incubated for 2 h at 37° C., followed by collection of the non-adherent cells. The cells were ready for use in experiments after overnight incubation at 37° C. […]
Laminar flow assays were performed as follows. Polystyrene plates (B.D) were coated with soluble VCAM-1 at 10 μg/ml in the presence of 2 μg/ml HSA carrier. The plates were washed three times with PBS and blocked with HSA (20 μg/ml in PBS) for 2 hrs at room temperature. Alternatively, washed plates were coated with 10 μg/ml MIG chemokine in PBS for 30 min at room temperature, before being blocked with HSA. The plates were assembled as the lower wall of a parallel wall flow chamber and mounted on the stage of an inverted microscope. The peptide, as described previously, (10 μg/ml) was allowed to settle on the substrate coated chamber wall for 10 min, at 37° C. and then washed. T cells (5×10^6/ml, purity >98%) were suspended in binding buffer, perfused into the chamber and allowed to settle on the substrate coated chamber wall for 1 min, at 37° C. Flow was initiated and increased in 2 to 2.5 fold increments every 5 sec. generating controlled shear stresses on the wall. Cells were visualized in a 20× objective of an inverted phase-contrast Diaphot Microscope (Nikon, Japan) and photographed with a long integration LIS-700 CCD video camera (Applitech; Holon, Israel), connected to a video recorder (AG-6730 S-VHS, Panasonic, Japan). The number of adherent cells resisting detachment by the elevated shear forces was determined after each interval by analysis of videotaped cell images, and was expressed as the percent of originally settled cells. All adhesion experiments were performed at least three times on multiple test fields.

Bound chemokines (at least): MCP-1 (Human MCP-1) | Bound chemokines (at least): Eotaxin (Eotaxin [1]) | Bound chemokines (at least): IL-8 (human IL-8) | Sequence | other results
MCP-1 |  |  | LDYPIPQTVLHH [BKT-P46] | 
MCP-1 |  |  | TRLVPSRYYHHP [BKT-P47] | 
MCP-1 |  |  | WSAHIVPYSHKP [BKT-P52] | 
MCP-1 |  |  | YATQHNWRLKHE [BKT-P53] | 

The remaining lines, values behind:

Sequence | Bound chemokines (at least): MCP-1 (Human MCP-1) | Bound chemokines (at least): Eotaxin (Eotaxin [1]) | Bound chemokines (at least): IL-8 (human IL-8) | other results
LGFDPTSTRFYT [BKT-P22] |  | bind and found to bind Eotaxin |  | 
LLADTTHHRPWP [BKT-P37] |  |  | IL-8 | 
SAGHIHEAHRPL [BKT-P39] |  | Eotaxin, | IL-8 | Bound chemokines (at least): SDF-1α (SDF-1α): SDF-1α; Level of Antagonistic Effect (IL-8): −; Abolishment of the activity of IL-8 (IL-8): no effect; Level of Antagonistic Effect (Eotaxin [2]; Chemokine checked Eotaxin, T cells, peptide 10 μg/ml): +++ (+++ 100%); Blocking of the activity of Eotaxin (Eotaxin [2]; T cell adhesion under flow): 100%
SAISDHRAHRSH [BKT-P40] |  |  | IL-8 | 
SFWHHHSPRSPL [BKT-P31] |  | Eotaxin |  | 
SIFAHQTPTHKN [BKT-P3] | MCP-1 |  | IL-8 | Bound chemokines (at least): MIG (MIG [3]): highest binding level and MIG; Binding to the various chemokines [4]: binds to all five chemokines tested; Level of Antagonistic Effect (MIG [5]): +++ (+++ 100%); Percentage of arrested cells (MIG [5]; MIG plus peptide (FIG. 4), MIG alone about 25-30%, control = VCAM-1 alone): dramatically reduced; Reduction of the activity of MIG (MIG [5]): complete arrest; Level of Antagonistic Effect (IL-8): +++ (+++ 100%); Abolishment of the activity of IL-8 (IL-8): complete arrest
SIPSHSIHSAKA [BKT-P2] | MCP-1, | Eotaxin | IL-8 | Level of Antagonistic Effect (MIG [5]): ++ (++ 50%); Reduction of the activity of MIG (MIG [5]): about 50%
SQTLPYSNAPSP [BKT-P1] |  |  |  | Bound chemokines (at least): SDF-1α (SDF-1α): bind and found to bind SDF-1α; Binding to the various chemokines [4]: bind specifically to various chemokines; also recorded: specifically to more than one chemokine
SVQTRPLFHSHF [BKT-P34] |  | Eotaxin |  | 
VHTSLLQKHPLP [BKT-P26] | MCP-1 |  |  | 
